Patent publication US20080227085A1, “Methods and Systems for the Identification of Rna Regulatory Sequences and Compounds that Modulate their Function” (priority 2003, published 2008)

Test system: general translation (reporter mRNA encoding firefly luciferase)
Assay: Inhibition of reporter mRNA translation by HCV-IRES RNA fragments in in vitro translation system (RRL, firefly luciferase)
Format: biochemical, rabbit
Conditions: RNA fragments preincubated with in vitro translation system before Fy Luc reporter mRNA; FIG. 3
Protocol: FIG. 3. […] An in vitro translation system was preincubated with the RNA fragments before addition of the reporter mRNA construct encoding firefly luciferase (Fy Luc). The inhibitory effects of each of the fragments on general translation were determined by monitoring luciferase activity upon addition of substrate. […] Domain I not analyzed due to lack of any predicted secondary structure.
The plasmid pGEM3-HCV2b-IRES contains sequence coding for nucleotides 18 to 356 (SEQ ID NO: 1) of HCV-IRES RNA (genotype 2b) inserted at the BamHI restriction endonuclease site of the cloning vector pGEM-3 (Promega Corp., Madison, Wis.; FIG. 2A). RNA secondary structure prediction algorithms, as well as biochemical and genetic data, support a representation of this sequence as shown in FIG. 2B. […]
Translation reactions were performed in vitro to determine the inhibitory effect of HCV IRESIII RNA and fragments thereof and contained (20 μl): 4 μl pre-treated RRL, 4 μl 5× Reaction Buffer A, 5 μl of HCV IRES RNA (1 μM in 20% B), 5 μl mRNA ([…]), and 2 μl 10% DMSO. […] Translation reaction was stopped and Luciferase activity was measured using ViewLux™ (Perkin-Elmer Scientific Instruments, Boston, Mass.; detector set at 10 sec measurement and 6× binning; FIG. 3) upon the addition of 50 μl LucLite-Plus™ luciferase assay reagent (Promega Corp., Madison, Wis.). […]

B1: domain III: domain III RNA fragment of the HCV-IRES UTR (SEQ ID NO: 26), minimal RNA element required for efficient translation inhibition (nucleic acid)
chain: GGCCCCCCCCUCCCGGGAGAGCCAUAGUGGUCUGCGGAACCGGUGAGUACACCGGAAUUACCGGAAAGACUGGGUCCUUUCUUGGAUAAACCCACUCUAUGUCCGGUCAUUUGGGCGUGCCCCCGCAAGACUGCUAGCCGAGUAGCGUUGGGUUGCGAAAGGCCUUGUGGUACUGCCUGAUAGGGUGCUUGCGAGUGCCCCGGGAGGUCUCGUA
modifications: Hepatitis C virus; domain III of HCV-UTR RNA
inhibition of translation of the reporter (luciferase activity): majority of inhibitory activity resides in domain III
